Publication doi:10.1101/2022.09.28.508705
Blank lines part the entries; values can stand above or below the substance they belong to.

Tests used:
Test in all cases: crystal structure
[1] = target: mVSG397 N-terminal domain (T. brucei brucei, strain Lister 427)
[2] = target: mVSG531 N-terminal domain (T. brucei brucei, strain Lister 427)
[3] = target: mVSG1954 N-terminal domain (T. brucei brucei, strain Lister 427)

- stoichiometry N [1]: 2
Substance: mVSG397 N-terminal domain (domain or fragment)

- stoichiometry N [2]: 2
Substance: mVSG531 N-terminal domain (domain or fragment)

- stoichiometry N [3]: 3
Substance: mVSG1954 N-terminal domain (domain or fragment)
